Read-outs that look alike come from different tables or passages of the source.
How the values were obtained:
[1] = molecular target: HLA A*0201 molecule on the surface of T2 cells (human); assay: T2 cell HLA-A2 stabilisation, 100 µM peptide for 18 h, BB7.2 flow cytometry
[2] = molecular target: HLA A*0201 molecule on the surface of T2 cells (human); assay: T2 cell HLA-A2 stabilisation; fold over the mean of no peptide and HLA mismatch B7 peptide
[3] = molecular target: HLA A*0201 molecule on the surface of T2 cells (human); conditions: remark: other sources report otherwise

Binder	peak channel [1]	Fold Increase [2] [fold]	Fold Increase [3] [fold]	peak channel [3]
VLAELVKQI (modifications not checked) [IE1p81-89]	495	2	–	–
TPRVTGGGAM (modifications not checked) [(-)control B7 T10M]	–	–	1	232
LLSEFCRVL (modifications not checked) [IE1p304-312]	433	1.8	–	–

Reference: US20050232933A1, “CMV-IE1 peptides and method of use” (priority 2003, published 2005)
